Test results taken from the supplement of paper PMC9170038.

Tested on: MS2 coat protein
Test: apparent KD of MS2 coat protein; designed switch direction (-1 OFF switch, 1 ON switch): -1; higher = weaker reporter binding
Method in brief: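 Transcription of designed RNA switches on Illumina chips was done by stalled E. coli RNA polymerase. SNAP-549-labelled MS2 coat protein was then titrated in doubling steps from 0.7 or 1.5 nM to 3 µM, with steps of 0.8–1.5 h at the lowest and 10–20 min at the highest concentration. The per-design median over clusters of curve-fitted normalised fluorescence is reported as apparent KD.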

[1] = input ligand: microRNA oligo, concentration not stated
[2] = Eterna round: R95, input ligand: microRNA oligo, concentration not stated
[3] = Eterna round: R95, input ligand: FMN 200 uM
[4] = Eterna round: R95, input ligand: none

Row | Sequence | apparent KD of MS2 coat protein [1] [nM] | apparent KD of MS2 coat protein (input ligand: FMN 200 uM) [nM] | apparent KD of MS2 coat protein (input ligand: none) [nM] | apparent KD of MS2 coat protein [2] [nM] | apparent KD of MS2 coat protein [3] [nM] | apparent KD of MS2 coat protein [4] [nM]
1 | CAUUAUUAUCGAGGAUAUCCUAUUGAAAUUCUGGGAGAAGGCGGACUCAACAUGAGGAUCACCCAUGUGAGACGGGUGCUAGGG [Ex NG1 #26] (Eterna round: R96, puzzle: Exclusion NG 1) | 19.6 |  |  |  |  | 
2 | CCAAACUGAGGAUAUACAUGAGGAUCACCCAUGUGCCCGCGGUCAUAUGUAGCCUAGUGUAGAAGGCAGAAAAC [Rearle] (Eterna round: R96, puzzle: Exclusion 3) | 41.8 | 24.9 | 50.9 |  |  | 
3 | CCAAACUGAGGAUAUACAUGAGGAUCACCCAUGUGCCCGCGGUCAUAUGUAGCCUAGUGUAGAAGGCAGAAAAC [Rearle] (puzzle: Exclusion 3) |  |  |  | 33 |  | 
4 | CCAACUCAGGAGGAUAUCUCCGCGAGUUCACGAAGAGAAGGCCUGACAUGAGGAUCACCCAUGUGUCCAUGAGG [Eternabot (Original) Solution 8] (Eterna round: R97, puzzle: Exclusion 6) |  | 106 | 69.6 |  |  | 
5 | CCAAGAUAGGAAGGAUAUUGUACAUGAGGAUCACCCAUGUAAUAAAUGAGGAUCACGGAUGUAGACAAGAAGGUCCGGAUAAGC [Ostracism 5 - Jieux - Exclusion NG 2] (Eterna round: R96, puzzle: Exclusion NG 2) | 25.1 | 84.1 | 45.1 |  |  | 
6 | CCAAGCUUAUUCAUUAACCACAUGAGGAUCACCCAUGUCUAGGCAAUUAUGACUUGCCCAUCUGGUGCUCGUCUUAU [Sensor-V1 #32] (Eterna round: R97, puzzle: Sensor, turn-off variant 1) |  | 32 | 32.7 |  |  | 
7 | CCAAGCUUGUUCAUUAACCACAUGAGGAUCACCCAUGUCUUGGCAAUUAUGACCUGCCCGUCAGGUGCUCGUCUUAU [Sensor-V1 #36] (Eterna round: R97, puzzle: Sensor, turn-off variant 1) |  | 45 | 48.1 |  |  | 
8 | CCAAGCUUUUUCCUUAACAACAUGAGGAUCACCCAUGUGUAAGCUAUUCGGUUUGGGCUCUUUAGUGCUCGUCUUAU [malcom mod] (Eterna round: R97, puzzle: Sensor, turn-off variant 1) |  | 19.2 | 19.7 |  |  | 
9 | CCACGACAUGAGGAUCACCCAUGUGAGGAUAUGGCCUGUAAGGCGUGAGCUGAAUCAAUCAGAAGGCGCGUGGG [salish99_ex1_r4_057] (Eterna round: R97, puzzle: Exclusion 1) |  | 92.4 | 50.6 |  |  | 
10 | CCACGGUGAGGAUAUCAAAGAUUGCGCUCGGAAGGUCAAUUUGAGAAGGCACAUGAGGAUCACCCAUGUUAGCG [Eternabot (L2) Solution 40] (Eterna round: R97, puzzle: Exclusion 4) |  | 29.8 | 34.6 |  |  | 
11 | CCACUGUCAGGAUAUCGUGCAUAAGCGUUUACACUUAUGUGCGAGAAGGGACAUGAGGAUCACCCAUGUAAACG [Omei Ex4 A28PK7] (Eterna round: R97, puzzle: Exclusion 4) |  | 628 | 391 |  |  | 
12 | CCAGCGCGUGUGAGGAUAUGCUGGUCCUUGGAUCAGCAGAAGGCACAUGAGGAUCACCCAUGUGAGUGCGUUGG [JL bmx4 3.35] (puzzle: Brourd's mod of Exclusion 4) |  |  |  | 16.2 |  | 
13 | CCAGGCAGUGUGAGGAUAUGCUGGUCCUUGGAUCAGCAGAAGGCACAUGAGGAUCACCCAUGUGAAUAGCUUGG [JL bmx4 3.25] (puzzle: Brourd's mod of Exclusion 4) |  |  |  | 20.5 | 105 | 21.8
14 | CCAGGCAGUGUGAGGAUAUGCUGGUGGAUACAUCAGCAGAAGGCACAUGAGGAUCACCCAUGUGAAGAGCUUGG [Mat - Exclusion 4 - JL Mod - D99] (puzzle: Brourd's mod of Exclusion 4) |  |  |  | 19 | 136 | 20.5
15 | CCAUAUAACUGAGGAUAUAAUCGCCACUGACGUUUAGAAGGCAGACAUGAGGAUCACCCAUGUGAUUUCUCAAUAUUAUACAUC [Prohibition 78 - Jieux - Exclusion NG 1] (Eterna round: R96, puzzle: Exclusion NG 1) | 31.1 | 1840 | 245 |  |  | 
16 | CCAUCGAGUGUGAGGAUAUGCUGUUCGAAAGAGCAGCAGAAGGCACAUGAGGAUCACCCAUGUGGAUACGGUGG [Mat - Exclusion 4 - JL Mod - D82] (puzzle: Brourd's mod of Exclusion 4) |  |  |  | 30.6 |  | 
17 | CCAUGGGAGCGAGGAUAUAGACCAUGGGAAGAGCUAGAAGGCGCUGACAUGAGGAUCACCCAUGUGUUCAUGAGGAGGUGGACA (Eterna round: R96, puzzle: Exclusion NG 1) | 88.7 | 215 | 113 |  |  | 

Row | Sequence | apparent KD of MS2 coat protein [1] [nM] | apparent KD of MS2 coat protein (input ligand: FMN 200 uM) [nM] | apparent KD of MS2 coat protein (input ligand: none) [nM] | apparent KD of MS2 coat protein [2] [nM] | apparent KD of MS2 coat protein [3] [nM] | apparent KD of MS2 coat protein [4] [nM]
18 | CCAUGUCCAGAGGAUAUGUAGCGGAUAAACGCAACAGAAGGCUGGACAUGAGGAUCACCCAUGUGCGCCUUCCA [Letion] (Eterna round: R97, puzzle: Exclusion 6) |  | 35.7 | 106 |  |  | 
19 | CCCACAAGCUUUUUGCUCGACAUGAGGAUCACCCAUGUUGAAUGGGUUAGAUGUGUGUGAAACACACACAUCUACCU [-32.5, -55.3 kcal, A 27%] (Eterna round: R97, puzzle: Sensor, turn-off variant 1) |  | 20.3 | 18.6 |  |  | 
20 | CCCACAAGCUUUUUGCUCGACAUGAGGAUCACCCAUGUUGAAUGGGUUAUGUGUGUGUGAUACAUAUAUAUGGUCCU [-25.6, -50.5 kcal, A 23%] (Eterna round: R97, puzzle: Sensor, turn-off variant 1) |  | 201 | 207 |  |  | 
21 | CCCAGAUAGGAAGGAUAUUGUACAUGAGGAUCACCCAUGUAAUAAAUGAGGAUCACGGAUGUAGACAAGAAGGUCCGGAUAGGC [Ostracism 7 - Jieux - Exclusion NG 2] (Eterna round: R96, puzzle: Exclusion NG 2) | 42.5 | 108 | 50.2 |  |  | 
22 | CCCAGUUAGUCAGGAUAUCUUACAUGAGGAUCACCCAUGUAAUAAAUGAGGAUUUCGGGUGUCUAAGAGAAGGGACGGAUAGGC [Ostracism 27 - Jieux - Exclusion NG 2] (Eterna round: R96, puzzle: Exclusion NG 2) | 9.5 | 22.3 | 19.4 |  |  | 
23 | CCCGAGCUAGGAUAUGCACAAGGUAUCGAUCCACAACACACACAUGAGGAUCACCCAUGUAGAAGGAGCAUCGU [Eternabot (L2) Solution 27] (Eterna round: R97, puzzle: Exclusion 2) |  | 165 | 77.9 |  |  | 
24 | CCCGCAGGUUUUUUGCUCGACAUGAGGAUCACCCAUGUUGCGUGGGUUGUGUGUGUGUGGUGCAUAUAUAUGGUCCU [-25.4, -48.9 kcal, A 14%] (Eterna round: R97, puzzle: Sensor, turn-off variant 1) |  | 300 | 350 |  |  | 
25 | CCCGGGUCUGCAGGAUAUUCGAAAGCAGGUCAAAGGUCACAUGAGGAUCACCCAUGUAGUUUAACGAAGAAGGGUGUCGCCCGU [Eternabot solution 38] (Eterna round: R96, puzzle: Exclusion NG 2) | 76.7 | 168 | 162 |  |  | 
26 | CCCGUGUGAGGAUAUACUCUAAGCAUUGACAGUUGCUACAGGUAGAAGGCACAUGAGGAUCACCCAUGUCCCGG [EX4 C.13] (Eterna round: R97, puzzle: Exclusion 4) |  | 66 | 295 |  |  | 
27 | CCCGUGUUAGGAUAUACGGCACACCCACCAGCGGGUGUAUAGUAGAAGGAACAUGAGGAUCACCCAUGUAUAAC [Inardiza] (puzzle: Exclusion 4) |  |  |  | 32.4 |  | 
28 | CCCUCACAUGAGGAUCACCCAUGUAAGGAUAUCUUCGCUUUGACGUUGUUGAAUGCGAAGAGAAGGUGCACGGC [jl-ex1-4.71 ViennaUCT mod] (Eterna round: R97, puzzle: Exclusion 1) |  | 43 | 20.9 |  |  | 
29 | CCCUUUCAGGCAGGAUAUGUUCAUUUGUGAAUGGUGCCUACCUCACAUGAGGAUCACCCAUGUGGACAGAAGGGCCGGUGAAAA [Eternabot solution 26] (Eterna round: R96, puzzle: Exclusion NG 2) | 25.5 | 120 | 25.7 |  |  | 
30 | CCGAAACAUGAGGAUCACCCAUGUGAGGAUAUGAGCGUCUAGUUGAGAGAUUGGACGCUCAGAAGGCACAUUGG [JR_Ex1_Sub075] (Eterna round: R97, puzzle: Exclusion 1) |  | 76.7 | 121 |  |  | 
31 | CCGAACUCAGGAUAUGCAUGUAUAACAGAGAGAUCCACUAAACAUGAGGAUCACCCAUGUAGAAGGGAGUCGGG [Eternabot (L1) Solution 14] (Eterna round: R97, puzzle: Exclusion 2) |  | 887 | 365 |  |  | 
32 | CCGAAUAAGCAGGAUAUCGUUUCGGAAACGAAACGAGAAGGGCUAACAUGAGGAUCACCCAUGUUCCUUAACGG [Mat - Exclusion 6 - Eli Mod - D77] (puzzle: Exclusion 6) |  |  |  | 18.3 | 23.9 | 18
33 | CCGAGGUAGCGGUCCUAUGACAUGAGGAUCACCCAUGUACCUCGCUACGAGCUUUUUGCUCGUCUUAAAAUUCUCGG [Mat - Sensor v3 - turn-off var 1 - JL Mod - D29] (puzzle: Sensor v3, turn-off variant 1) |  |  |  | 156 | 47 | 54
